Substitutions are numbered along the chain they refer to. In names and notes the source's numbering stands. In brackets after ≈: the same amount, converted by molar mass.
B1: TolC: outer membrane protein TolC encoded on plasmid pTolCa (protein, UniProt P02930 23-493, looked up)
Outer membrane protein TolC: ENLMQVYQQARLSNPELRKSAADRDAAFEKINEARSPLLPQLGLGADYTYSNGYRDANGINSNATSASLQLTQSIFDMSKWRALTLQEKAAGIQDVTYQTDQQTLILNTATAYFNVLNAIDVLSYTQAQKEAIYRQLDQTTQRFNVGLVAITDVQNARAQYDTVLANEVTARNNLDNAVEQLRQITGNYYPELAALNVENFKTDKPQPVNALLKEAEKRNLSLLQARLSQDLAREQIRQAQDGHLPTLDLTASTGISDTSYSGSKTRGAAGTQYDDSNMGQNKVGLSFSLPIYQGGMVNSQVKQAQYNFVGASEQLESAHRSVVQTVRSSFNNINASISSINAYKQAVVSAQSSLDAMEAGYSVGTRTIVDVLDATTTLYNAKQELANARYNYLINQLNIKSALGTLNEQDLLALNNALSKPVSTNPENVAPQTPEQNAIADGYAPDSPAPVVQQTSARTTTSNGHNPFRN
B2: A279T: E. coli AcrB (SEQ ID NO:1) variant with amino acid mutation A279T (protein)
chain: MPNFFIDRPIFAWVIAIIIMLAGGLAILKLPVAQYPTIAPPAVTISASYPGADAKTVQDTVTQVIEQNMNGIDNLMYMSSNSDSTGTVQITLTFESGTDADIAQVQVQNKLQLAMPLLPQEVQQQGVSVEKSSSSFLMVVGVINTDGTMTQEDISDYVAANMKDAISRTSGVGDVQLFGSQYAMRIWMNPNELNKFQLTPVDVITAIKAQNAQVAAGQLGGTPPVKGQQLNASIIAQTRLTSTEEFGKILLKVNQDGSRVLLRDVAKIELGGENYDIITEFNGQPASGLGIKLATGANALDTAAAIRAELAKMEPFFPSGLKIVYPYDTTPFVKISIHEVVKTLVEAIILVFLVMYLFLQNFRATLIPTIAVPVVLLGTFAVLAAFGFSINTLTMFGMVLAIGLLVDDAIVVVENVERVMAEEGLPPKEATRKSMGQIQGALVGIAMVLSAVFVPMAFFGGSTGAIYRQFSITIVSAMALSVLVALILTPALCATMLKPIAKGDHGEGKKGFFGWFNRMFEKSTHHYTDSVGGILRSTGRYLVLYLIIVVGMAYLFVRLPSSFLPDEDQGVFMTMVQLPAGATQERTQKVLNEVTHYYLTKEKNNVESVFAVNGFGFAGRGQNTGIAFVSLKDWADRPGEENKVEAITMRATRAFSQIKDAMVFAFNLPAIVELGTATGFDFELIDQAGLGHEKLTQARNQLLAEAAKHPDMLTSVRPNGLEDTPQFKIDIDQEKAQALGVSINDINTTLGAAWGGSYVNDFIDRGRVKKVYVMSEAKYRMLPDDIGDWYVRAADGQMVPFSAFSSSRWEYGSPRLERYNGLPSMEILGQAAPGKSTGEAMELMEQLASKLPTGVGYDWTGMSYQERLSGNQAPSLYAISLIVVFLCLAALYESWSIPFSVMLVVPLGVIGALLAATFRGLTNDVYFQVGLLTTIGLSAKNAILIVEFAKDLMDKEGKGLIEATLDAVRMRLRPILMTSLAFILGVMPLVISTGAGSGAQNAVGTGVMGGMVTATVLAIFFVPVFFVVVRRRFSRKNEDIEHSHTVDHH
modifications: E. coli
B3: F617L: E. coli AcrB (SEQ ID NO:1) variant with amino acid mutation F617L (protein)
chain: B2 chain with T279A, F617L
modifications: E. coli
B4: L822P: E. coli AcrB (SEQ ID NO:1) variant with amino acid mutation L822P (protein)
chain: B2 chain with T279A, L822P
modifications: E. coli
B5: F1033Y: E. coli AcrB (SEQ ID NO:1) variant with amino acid mutation F1033Y (protein)
chain: B2 chain with T279A, F1033Y
modifications: E. coli
B6: F927S: E. coli AcrB (SEQ ID NO:1) variant with amino acid mutation F927S (protein)
chain: B2 chain with T279A, F927S
modifications: E. coli

Each molecule was assayed on E. coli K12 (assay: microbe, parasite or virus in culture). Settings: Escherichia coli, K12, 2 h, read-out: toxic dose (concentration of compound that decreased growth by half).
Format: cell-based
Procedure: A: The olefin compounds were added to different concentrations as indicated to an E. coli K12 culture at an OD600=0.2. OD was monitored after 2 hour at 37° C. The bars represent standard deviation between duplicates B: A survival test in presence of 1-octene was performed. Six different dilutions of a culture (10 cells to 10^7 cells, left to right) of E. coli K12 were spotted in triplicate on an agar plate. […] Plates were incubated at room temperature for 2 days and then opened to allow evaporation of the olefin.
In this example, toxicity of olefin compounds was evaluated. A toxic dose was defined as the concentration of compound that decreased growth by half.
In the case of `C=CCCCC` [1-hexene], the IC50 is reported as 65 µg/mL (≈ 772 µM).
In the case of `C=Cc1ccccc1` [styrene], the IC50 is reported as 110 µg/mL (≈ 1060 µM).

These molecules were tested on E. coli K12 wild type (assay: Survival test in 1-hexene saturated atmosphere on over-production of AcrA, AcrB and TolC). Settings: FIG. 3.
Format: cell-based
Procedure: Six different dilutions of cultures (10 cells to 10^7 cells, left to right on the picture) were spotted in triplicate on an agar plate.
For agar plate based assays, cells were first streaked overnight and few colonies were used to inoculate a preculture of 6 mL of LB-Cm with glucose (2 g/L) and arabinose (5 mM). At OD60=1 at 37° C., the cultures were used to prepare a dilution series. Dilution 0 (D0) corresponds to the OD600, =1, and contains ˜10^9 cells/mL. Dilution 1 (D1) is a 10-fold dilution of D0, dilution 2 (D2) a 10-fold dilution of D1 up to dilution 5 (D5), which contains ˜10^4 cells/mL. 10 μL of each dilution was spotted in triplicate on LB-agar plates (single well plates, Thermo Scientific, Waltham, Mass.) containing 30 mL of LB-agar, Cm (30 mg/L), glucose (2 g/L) and arabinose (5 mM). […] The agar plates were then inverted over the lid, cells facing the olefin compound, sealed with parafilm, placed in the plastic bag (the original packaging for the petri dishes) and incubated for 2 days at room temperature. For 1-octene, a second condition, via overlaying 2 mL of compound on the top of the agar submerging the cells, was used. TolC overexpression impact was examined using the same method, but in this case, the LB media and the LB-agar were also supplemented with ampicillin (100 mg/L) and IPTG (100 μM).
“acrA and acrB and TolC: E. coli tripartite RND efflux pump AcrAB-TolC, over-expressed from pABc and pTolCa” was tested, and the “tolerance to 1-hexene on over-expression in the wild type strain” value was “increased tolerance”.
In the case of B1, the “tolerance to 1-hexene on over-expression in the wild type strain” value is reported as “does not improve the survival”.

Each molecule was assayed on E. coli K12 ΔacrAB (assay: Survival assay on agar plate in olefin saturated atmosphere, strains producing AcrAB or AcrB variants). Settings: 1-hexene saturated atmosphere.
Format: cell-based
Procedure: FIG. 2: impact of AcrAB production on growth, in presence of styrene 1-hexene, 1-octene and 1-nonene on cell growth. A: Different concentrations of styrene were added to an OD600=0.2 culture of E. coli K12 ΔacrAB containing the pABc (white) or the control plasmid p0c (black). OD density was monitored after 2 hours of growth at 37° C. The bars represent standard deviation between duplicates. B: A survival test in presence of 1-hexene, 1-octene, or 1-nonene saturated atmosphere was performed. Six different dilutions of cultures (10 cells to 10^7 cells, left to right on the figure) were spotted in triplicate on an agar plates. Plates were then exposed to the aforementioned chemicals.
FIG. 4: Impact of beneficial mutations on AcrB on tolerance to 1-hexene, A: Survival test of E. coli strain producing either the AcrB wild type or variants in a 1-hexene saturated atmosphere was performed. Two dilutions of cultures (Dilution 1: 10^5 cells and Dilution 2: 10^4 cells) were spotted in triplicate on an agar plate. B: Localization of the 6 beneficial mutations represented on the structure of a single monomer of AcrB or C: on the structure of the AcrB trimer.
FIG. 6: Impact of beneficial mutations on AcrB on tolerance to 1-hexene. A: Survival test of E. coli strain producing either the AcrB Wild type or variants with 1, 2 or several beneficial mutations, in an 1-hexene saturated atmosphere was performed. Two dilutions of cultures (Dilution 2: 10^4 cells and Dilution 3: 10^3 cells) were spotted in triplicate on an agar plate. B: Soluble fraction of total proteins from a culture of strains producing either the wild type, either the variant F617L, either the variant 6 (A279T, Q584R, F617L) were analyzed by western blot using anti-His antibody.
For agar plate based assays, cells were first streaked overnight and few colonies were used to inoculate a preculture of 6 mL of LB-Cm with glucose (2 g/L) and arabinose (5 mM). At OD60=1 at 37° C., the cultures were used to prepare a dilution series. Dilution 0 (D0) corresponds to the OD600, =1, and contains ˜10^9 cells/mL. Dilution 1 (D1) is a 10-fold dilution of D0, dilution 2 (D2) a 10-fold dilution of D1 up to dilution 5 (D5), which contains ˜10^4 cells/mL. 10 μL of each dilution was spotted in triplicate on LB-agar plates (single well plates, Thermo Scientific, Waltham, Mass.) containing 30 mL of LB-agar, Cm (30 mg/L), glucose (2 g/L) and arabinose (5 mM). Small containers (microfuge tube lids) were placed on the open lid of the agar plate and filled with 400 to 600 μL of 1-hexene or 1-octene or with 75 μL of 1-nonene. The agar plates were then inverted over the lid, cells facing the olefin compound, sealed with parafilm, placed in the plastic bag (the original packaging for the petri dishes) and incubated for 2 days at room temperature. For 1-octene, a second condition, via overlaying 2 mL of compound on the top of the agar submerging the cells, was used. TolC overexpression impact was examined using the same method, but in this case, the LB media and the LB-agar were also supplemented with ampicillin (100 mg/L) and IPTG (100 μM). […]
B2 was tested, and the “efficiency among the beneficial mutations” value was “more efficient”.
For B3, the “efficiency among the beneficial mutations” value was “more efficient”.
B4 was tested, and the “efficiency among the beneficial mutations” value was “more efficient”.

Same assay, conditions: single mutation AcrB variants, 1-hexene saturated atmosphere, FIG. 4A
In the case of B2, the “tolerance to 1-hexene relative to wild type AcrB sequence” value is reported as “improvement in tolerance”.
B5 was tested, and the “tolerance to 1-hexene relative to wild type AcrB sequence” value was “improvement in tolerance”.
For B3, the “tolerance to 1-hexene relative to wild type AcrB sequence” value was “improvement in tolerance”.
With B4 the “tolerance to 1-hexene relative to wild type AcrB sequence” value was “improvement in tolerance”.
For B6, the “tolerance to 1-hexene relative to wild type AcrB sequence” value was “improvement in tolerance”.

From US10513713B2, “Modified host cells having tolerance to α-olefins” (priority 2014, dated 2019)
